Where two headings read alike, the source gives them in different places.
Experiments:
Experiment in all cases: ELISA, coated protein, antibody at 4 µg/mL
human Activin A protein [1] = target: T1, human Activin A protein (human, UniProt P08476 311-426)
T1 construct: Bought; Activin A is by nature a dimer of inhibin beta A chains
T1 sequence (looked up): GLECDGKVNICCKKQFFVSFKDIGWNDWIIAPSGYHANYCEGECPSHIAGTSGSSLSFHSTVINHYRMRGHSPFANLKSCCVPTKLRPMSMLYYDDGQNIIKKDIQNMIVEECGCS

human GFRα1 protein [2] = target: T2, human GFRα1 protein (human, UniProt P56159 25-429, limits assumed)
T2 construct: Bought
T2 sequence (looked up): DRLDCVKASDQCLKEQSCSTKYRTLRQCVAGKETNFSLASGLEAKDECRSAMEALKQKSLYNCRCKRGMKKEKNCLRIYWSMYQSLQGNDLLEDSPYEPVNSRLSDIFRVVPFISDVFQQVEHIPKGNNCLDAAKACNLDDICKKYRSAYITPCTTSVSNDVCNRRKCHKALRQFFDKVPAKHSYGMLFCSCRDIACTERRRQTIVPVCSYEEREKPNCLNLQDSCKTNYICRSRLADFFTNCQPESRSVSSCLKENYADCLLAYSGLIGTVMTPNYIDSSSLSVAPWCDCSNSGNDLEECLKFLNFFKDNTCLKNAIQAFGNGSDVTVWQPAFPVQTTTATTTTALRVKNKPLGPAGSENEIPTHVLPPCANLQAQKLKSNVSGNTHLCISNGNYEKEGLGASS

human GDF1 protein [3] = target: T3, human GDF1 protein (human, UniProt P27539 254-372, limits assumed)
T3 construct: Bought
T3 sequence (looked up): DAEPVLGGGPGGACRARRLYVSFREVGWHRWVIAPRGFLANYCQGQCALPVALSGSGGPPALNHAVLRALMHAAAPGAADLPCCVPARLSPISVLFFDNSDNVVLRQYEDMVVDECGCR

human BMP2 protein [4] = target: T4, human BMP2 protein (human, UniProt P12643 283-396)
T4 construct: Bought
T4 sequence (P12643 283-396 limits assumed): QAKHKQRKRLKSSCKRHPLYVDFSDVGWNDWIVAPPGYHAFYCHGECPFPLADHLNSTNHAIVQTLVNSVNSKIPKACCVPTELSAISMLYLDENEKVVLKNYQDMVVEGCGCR

human TGFβ1 protein [5] = target: T5, human TGFβ1 protein (human, UniProt P01137 279-390)
T5 construct: Bought
T5 sequence (P01137 279-390 limits assumed): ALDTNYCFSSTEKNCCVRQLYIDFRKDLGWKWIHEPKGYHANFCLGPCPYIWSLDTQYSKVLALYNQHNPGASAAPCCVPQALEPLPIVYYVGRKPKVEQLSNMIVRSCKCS

human GDF3 protein [6] = target: T6, human GDF3 protein (human, UniProt Q9NR23 251-364, limits assumed)
T6 construct: Bought
T6 sequence (looked up): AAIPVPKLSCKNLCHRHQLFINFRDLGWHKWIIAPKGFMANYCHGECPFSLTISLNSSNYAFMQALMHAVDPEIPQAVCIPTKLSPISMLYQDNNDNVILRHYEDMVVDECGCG

human Activin B protein [7] = target: T7, human Activin B protein (human, UniProt P09529 293-407)
T7 construct: Bought; Activin B is by nature a dimer of inhibin beta B chains
T7 sequence (looked up): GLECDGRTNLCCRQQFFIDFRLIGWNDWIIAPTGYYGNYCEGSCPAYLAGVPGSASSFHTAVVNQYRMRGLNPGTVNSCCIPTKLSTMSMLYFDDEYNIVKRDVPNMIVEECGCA

[8] = target: human GDF8 protein (human) (UniProt O14793)
human GDNF protein [9] = target: T8, human GDNF protein (human, UniProt P39905 78-211)
T8 construct: Bought
T8 sequence (looked up): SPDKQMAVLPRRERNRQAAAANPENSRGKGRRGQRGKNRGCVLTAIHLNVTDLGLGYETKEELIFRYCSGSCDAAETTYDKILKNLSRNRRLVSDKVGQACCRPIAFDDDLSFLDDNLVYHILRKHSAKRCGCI

[10] = target: human AMH protein (human) (UniProt P03971)
Human GDF15 protein [11] = target: T9, Human GDF15 protein (human, UniProt Q99988 197-308)
T9 construct: Natural GDF15 is said to be a disulfide-linked homodimer; also called Human-GDF15-his
T9 sequence: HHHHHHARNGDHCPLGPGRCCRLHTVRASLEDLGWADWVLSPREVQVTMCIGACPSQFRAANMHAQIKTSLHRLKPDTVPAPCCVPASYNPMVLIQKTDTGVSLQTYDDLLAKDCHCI

human GDF2 protein [12] = target: T10, human GDF2 protein (human, UniProt Q9UK05 320-429)
T10 construct: Bought
T10 sequence (looked up): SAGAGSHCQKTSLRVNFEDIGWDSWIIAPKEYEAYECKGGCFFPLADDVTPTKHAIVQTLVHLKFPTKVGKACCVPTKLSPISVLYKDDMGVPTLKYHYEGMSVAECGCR

human BMP4 protein [13] = target: T11, human BMP4 protein (human, UniProt P12644 293-408)
T11 construct: Bought
T11 sequence (looked up): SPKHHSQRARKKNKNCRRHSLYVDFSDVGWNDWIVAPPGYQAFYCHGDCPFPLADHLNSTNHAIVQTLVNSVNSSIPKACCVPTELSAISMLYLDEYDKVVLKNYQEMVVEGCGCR

human GDF11 protein [14] = target: T12, human GDF11 protein (human, UniProt O95390 299-407)
T12 construct: Bought
T12 sequence (looked up): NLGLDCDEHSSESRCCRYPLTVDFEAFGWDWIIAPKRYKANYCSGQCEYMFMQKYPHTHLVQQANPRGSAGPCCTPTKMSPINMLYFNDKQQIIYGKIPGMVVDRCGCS

human Activin A protein [15] = target: T1, human Activin A protein; remark: listed apart in the source
human GFRα1 protein [16] = target: T2, human GFRα1 protein; remark: listed apart in the source
human GDF1 protein [17] = target: T3, human GDF1 protein; remark: listed apart in the source
human BMP2 protein [18] = target: T4, human BMP2 protein; remark: listed apart in the source
human TGFβ1 protein [19] = target: T5, human TGFβ1 protein; remark: listed apart in the source
human GDF3 protein [20] = target: T6, human GDF3 protein; remark: listed apart in the source
human Activin B protein [21] = target: T7, human Activin B protein; remark: listed apart in the source
[22] = target: human GDF8 protein (human) (UniProt O14793); remark: listed apart in the source
human GDNF protein [23] = target: T8, human GDNF protein; remark: listed apart in the source
[24] = target: human AMH protein (human) (UniProt P03971); remark: listed apart in the source
Human GDF15 protein [25] = target: T9, Human GDF15 protein; remark: listed apart in the source
human GDF2 protein [26] = target: T10, human GDF2 protein; remark: listed apart in the source
human BMP4 protein [27] = target: T11, human BMP4 protein; remark: listed apart in the source
human GDF11 protein [28] = target: T12, human GDF11 protein; remark: listed apart in the source

OD value (OD 450 nm-620 nm) (human Activin A protein [1]): 0.0524
OD value (OD 450 nm-620 nm) (human GFRα1 protein [2]): 0.125
OD value (OD 450 nm-620 nm) (human GDF1 protein [3]): 0.0416
OD value (OD 450 nm-620 nm) (human BMP2 protein [4]): 0.0463
OD value (OD 450 nm-620 nm) (human TGFβ1 protein [5]): 0.0376
OD value (OD 450 nm-620 nm) (human GDF3 protein [6]): 0.04
OD value (OD 450 nm-620 nm) (human Activin B protein [7]): 0.168
OD value (OD 450 nm-620 nm) [8]: 0.0351
OD value (OD 450 nm-620 nm) (human GDNF protein [9]): 0.036
OD value (OD 450 nm-620 nm) [10]: 0.0465
OD value (OD 450 nm-620 nm) (Human GDF15 protein [11]): 0.0386
OD value (OD 450 nm-620 nm) (human GDF2 protein [12]): 0.0622
OD value (OD 450 nm-620 nm) (human BMP4 protein [13]): 0.0439
OD value (OD 450 nm-620 nm) (human GDF11 protein [14]): 0.038
OD value (OD 450 nm-620 nm) (human Activin A protein [15]): 0.0474
OD value (OD 450 nm-620 nm) (human GFRα1 protein [16]): 0.0807
OD value (OD 450 nm-620 nm) (human GDF1 protein [17]): 0.101
OD value (OD 450 nm-620 nm) (human BMP2 protein [18]): 0.055
OD value (OD 450 nm-620 nm) (human TGFβ1 protein [19]): 0.111
OD value (OD 450 nm-620 nm) (human GDF3 protein [20]): 0.0556
OD value (OD 450 nm-620 nm) (human Activin B protein [21]): 0.082
OD value (OD 450 nm-620 nm) [22]: 0.0485
OD value (OD 450 nm-620 nm) (human GDNF protein [23]): 0.0493
OD value (OD 450 nm-620 nm) [24]: 0.0569
OD value (OD 450 nm-620 nm) (Human GDF15 protein [25]): 0.043
OD value (OD 450 nm-620 nm) (human GDF2 protein [26]): 0.0444
OD value (OD 450 nm-620 nm) (human BMP4 protein [27]): 0.0464
OD value (OD 450 nm-620 nm) (human GDF11 protein [28]): 0.0659
Substance: IgG control (Sino Biological, Cat. No.: HG1K) (antibody)
